Experimental data taken from the DeepSol protein solubility set.

Assay: soluble on expression in E. coli; label from the status in PepcDB or PDB records

Sequence	soluble on expression in E. coli
MGSDKIHHHHHHMMKSLPHMIGNEIKRIRKEKKMTQKELCDGICSQAEISKIENGRNSPTIDLLQQISKRLRVPLSLLFRDQLESDAFREADNHLSSLFREQKYQEMRLELLRTDAIHHNEIRLLKAYFTILLEVKTEKIDYRTASALLSRLTDQEDIWYESPKMFIRIKMAISNLHVENEQYHLAEKVYEELEELTYDTEELKKQLIKVYYNHSQLLTYEKKYKAGLKITEKGLSYSLSLNDASFIAHFYYQRGYYHEVMLGDDSSPAQRDYTISYALFRAFHLHTYEEIVLKGKERFLLFTF	not soluble
MGSDKIHHHHHHMMNLSELAPDYIRAIQPYQPGKPISELVRDLGLNKDEVVKLASNENPLGTSPLAKEAMIQALNESARYPDGSGFELKAALSERLGMPADQIVLGNGSNDVLELATRIFLHPDSTAIYSQYAFAIYPLLAQAVGARGIAVPARNYGHDLEAMLAAVTPETRIIFIANPNNPTGTLCDARDLLRFMERVPQDVLVILDEAYDEYLPEANKANSIAWLKNFQNLVITRTFSKAYGLASVRVGFALAHADIANLMNRIRQPFNVNSIGLAAAQAALKDVEFVKLAYMTNRTGMQQMTHGLDQLGIEYIPSFGNFVCCHIDGHPANTLKIYRNLLQQGVIVRPLGNYDMLNHLRVTIGIEEENKRFLQALEQALKELD	not soluble
MGSDKIHHHHHHMMPQTSLHQHVMNWAISVPGDKTLKRDIFNNIWITASQRYEYQHLTFMAQGIVELLNTEIGGVDVSIPINLFLQSTEATKYDAEMLDFAQRIVTVKDRQHIALLSENILQKMPYQPDSTSVHTTATQAFQAGQGVCQDHAHVLIAMCRALQLPARYVSGYLFDQNSPHLASHAWAEVFLDNQWYCFDVSNQLFTPKHHIYLAVGRDYLDVAPIRGVREKGGTENMMSVVQVLAC	not soluble
MGSDKIHHHHHHMMPYLAKILLYPVKSLDGVEVEKVGVLASGALQHDREFAIFDERGKFVNGKRHAKIHLLRVQFALFNRTISLQIPGGNSQQVFHLDEERQALEATLSNYFEFAVTLRQNSLMGFPDDTHSPGPTVISTATLTEVASWFPGLSVDEIRRRMRANIEIDGVPAFWEDRLFSEQGDLVSFRVGDVDFFGANPCQRCIVPTRDSYSGEAYPSFQKIFATQRQATLPNWVASSPFNHFYRLSVNTQLPISSAGKILQIGDGVDIFP	not soluble
MGSDKIHHHHHHMMRALYTAATGMRAEQTNVDTIANNLSNVNTTGFKGQRTEFKSLLYQTIQTRSTSGNGDAKPVGAQVGLGTRVAATTSTYTQGPLNSTERPTDFALEGDGFFAVRGTDNQTYYTRNGAFTWSQYGNGQTILTDSQGNPVMDTNGNIIAVPAGVSAEKMSFGEDGAVGYMTAQGNYINLNQRIAVYQFNNPSGLEKQSGSLLAATANSGNPMLEIANPALKSSKVVTGYLEGSNVQVADEMVNLIVAQRAYELNSKAITTADSMLETANNLRR	not soluble
MGSDKIHHHHHHMMVEESLQLQNELLNKLVQGGGLKELVDSAAHFVQREVVIANTSNRVLESTFSEGFSQGEFFAVLPLQPPVPGRVQLQAGEKKAEALVVELSHDAKRLGFLFICDPGADEDNRLKVLIHQARNVFVLELQKKAELLENSRNYQDAFLFDLLYGNIEDNADIIARGKLWGWDLSLPHVVTAFELEDYESYSQDHYLVTTLHDIIQSVAQSLDKTVILMEKNEEVVLALPVEARKRRDFKAYLNMIINQVLAQAEERLAPRVIRVGVGRRYEQPSELFRSYQEAKVAVKLSALLKDKGPIVYFRELGVERILYSHDKQELLEFYREILAELEAQDKQKNELIETLENYLVYHCDLKATADALFLHPNSLRYRLKRIEEILDLDLEDFDTRVSLVIAFKIKHLIHSKERL	not soluble
MGSDKIHHHHHHMNARKGGVDRSRAEAGMADTLFFFHNPKAGGTSVEDALRSLFPDERCCPRIENDATEHAQRAGRYAGFRGYDFYAGHYGFDIYQAVGSGMAAATNFRWPIDRIVSVYRYFHHIVELSDSQVRDPRFRAVRLAKTLCMDDFVTCDDPAVQLHTHDHHFRQLTGSGWSMANEQDLSAAIRLINQMVWFYVCEHPHESLAWAEEAFCRALPEIPRLNITRPDSASETGLSARACRQLILQNERDIVLYQYALERLIAQVTHEPSRLVA	not soluble
MGSDKIHHHHHHMNAWEVNFDGLVGLTHHYAGLSFGNEASTRHRFQVSNPRLAAKQGLLKMKALADAGFPQAVIPPHERPFIPVLRQLGFSGSDEQVLEKVARQAPHWLSSVSSASPMWVANAATIAPSADTLDGKVHLTVANLNNKFHRSLEAPVTESLLKAIFNDEEKFSVHSALPQVALLGDEGAANHNRLGGHYGEPGMQLFVYGREEGNDTRPSRYPARQTREASEAVARLNQVNPQQVIFAQQNPDVIDQGVFHNDVIAVSNRQVLFCHQQAFARQSQLLANLRARVNGFMAIEVPATQVSVSDTVSTYLFNSQLLSRDDGSMMLVLPQECREHAGVWGYLNELLAADNPISELKVFDLRESMANGGGPACLRLRVVLTEEERRAVNPAVMMNDTLFNALNDWVDRYYRDRLTAADLADPQLLREGREALDVLSQLLNLGSVYPFQREGGGNG	not soluble
MGSDKIHHHHHHMNDLLKVIHNRASIRKFTGEHIPESDMEQIMSAAQSVPSINNYQPVTYVEITDQSVKDQAADLVNMPYVASSDRFFVILADYHKLLVGFEGKEREIAQTNLSAYNIAEGAALSAGVSAYAAIIAAESLGYGGVTMAGPVRAFQIYENYLDLPEMTKVVFTLALGVPDGHPGVKPKLPLSTFWQKDSYDTNVIDQGIADYNKTMRSYYESRNIDENWTEHNKKALTKAKDTTALTEYAKRKGFNLK	not soluble
MGSDKIHHHHHHMNDPLDPLPSLNALRAFEAASRHLNFRLAAGELGVTQGAVAQHVRGLESSIGLVLFERRPRALVLTENGRSYAASVRRAFDLLVEATQALRPQPLQLTISVTPTFAAKWLIPRLQDFTAAHPEIDLRIIATDRLSHFQTDAIDLAVRYGQPPFGVGLNAECLFESVLVAVGSPRLANELRSSGAARFFARYPLLHDAHNQWPPFLQEVLKQSAAIGEKNIRFNQTSLAIDAAMAGQGIALAPFAFVGRAIAMGGLSRIFDVELRTGSGFYVVTPRRLRHPGPVAAVRGWLLKQGREQMCD	not soluble
MGSDKIHHHHHHMNDVQQAINSDDIPLTDELVVSYLQDNPEFFNRNNSLMTGLRLNDEQRGTVSLVERQQQQLRQKVYGLEDEITQLMSVANHNEQLFVLYSDLYLRLLDCQSAEELLDCLHQATTELLSLSSFKLWLVSGNNTEVAHHSLSTNDCAGVMQNRLTNDEYYFGRLQESEQTLIFSKPCLGSVVLIKLTHDEQAVGFLAIGSEDAHHFDPRMDTLLLNQFKRLVAKLLHQQLSM	not soluble
MGSDKIHHHHHHMNEIAGIPYVEASFDKNGQGPEEEVALPAGVTDLIIMSHGWNNNKSKAEDLYNGFFASFAAAAQPNDLSARKLVILGVFWPSREYDTSVAVSGTPATGGGGAALGGGNGGSIKRLEEKLDDMKEIFTEAEQKKLLDEAKALLPDLEEKASVRDLFVNKMRSLLDPSAAGKEDASNIFFKDGGNELMKNLKAEEEDLGEDVAGGGAALPLGVSTPARAEGGAAGLVEILSGFKAAAINLLNYTTYYEMKTRSGTVGKNGVAPLIDKLASQVERIHLIGHSFGCRVVTSAALGSKTDKIKSMILLQAAFSQNGFSKIEQGFYRAIVDNHRVKGPVLITHTPNDRAVGLAYPLASRISGDKTMAFGDKDDLFGAMGRNGAQKMEQGEAVEGKLLSVGGPYAFKANTYFNLEASDFIKNHNDIKGKEVGYVVRKVVATAGMG	not soluble
MGSDKIHHHHHHMNFLDGHLFPENQQPLIITAAPYAPSWMPSDFPEDIAVTMEDQIQKAVDCYNAGATVLHLHVRELDGKGSKRLSKFNELIAGVRARVPEMIIQVGGSISFAPESEGAAAKWLSDDTRHMLAELEPTPDQVTVTVNTSQMNILEQFDHRDIVGSSMEDPEVFNAYKEMTVPAQPGWVEEHVRRLTAAGIQSAFQCYNLNSFESVERLMRRGIYKGPLVLNWVAIGGGMDSPSVYSLANFVRAVPDGAVLTVESSVCNVLPVNTMGIAMGLHVRCGTEDTLWNQTRTKKMGTVAQIEQLVRISEEMSRPIATARQAREMCRIGEFYDTVDETLQANGFAPNRNGGQQGFLRKVA	not soluble
MGSDKIHHHHHHMNGALDVLAPAEVIVAATAPADNEASDMPPVEIVLDSPPVSAEMVFDEDADLLDRLATDDEAAFRMLVERHIDRAYSIALRILGNSADAEDVVQDTMLKVWTHRGRWQHGRAKFSTWLYRVVSNRCIDLRRKPRTENVEAVPEVADTQPDAVRVIERNELSNLLEAAMQRLPEQQRIAVILSYHENMSNAEIAEVMDTTIAAVESLLKRGRQQLRARLSGDESELRAAFTDF	not soluble
MGSDKIHHHHHHMNHFFVEFGEYEASVCEWGDKSNPQIICFHGLGSTKLSFIEVAELLKDSYHIVSFDLPGHGKTQNFEKDEDYGASHLTNWVVALLEHIGKETFHIVAHSWGASVALHYAAECPEKVNKIVLLDGGYHHGKMNADYFANLYKDAKEGECPPRSLEEEITHYENDFDEYIFDSKETFIQSEKLAYSRWSPLLERAVYDLMREEDSKVKWHATGDTARGVIKFQYTVYKTLKPHKIKSDILLLYCDLPDNYLEIRELQIVEFKKRINITTKLYKDTGHLMHWDRPEEIAEDVLHWFK	not soluble
MGSDKIHHHHHHMNIGGGKFLLGRISNNPTSGIVGLANVGKSTFFQAITNSKLGNPANYPFATIDAECAKVNIPSVPLSNLLRIYQSAKCVPGTLTIYDIAGLTRGASQGHGLGNKFLNDIRHVEGIFQVVRGFLKEDITHIEGNVDPVRDLSVVQDELILKDLEFLENIRERLSKKMRMVSKNSKEHQEMKIETELLDALEEHLFNGKKIRHFKDHWNLDEVKILNKHNFLTSKPTLILLNVSPQDYVRNENKFVRNIIEWINEFSPGDKFLLFSAEFESQLMECKGIASEYFDKIKEDTNVSDQQLVSAIPQIILEMRKLLNLISFFTCGPQEVHQWNIREGTTAQEAAGVIHSDLRETFISADVIKYDDLKKMEPPLNESLLKSKGLIKRAGKQYIMQDNDIALFKAAGGKIKK	not soluble
MGSDKIHHHHHHMNIIKFFNQTIDYIETTLEDKIDEKKIVQLSGYSYPMFSRIFSILTAYSLSEYIRLRRLTKAAFDLRKNEEKVIDIAFKYQYESPDSFSLAFKKYHNCTPMEVKQGKDFKIFSPIHLSLTIKGGKAMEISIKKKEKFIVGGIKAENIETFQCPKVWEELFKKVSFNDLEKLGNGNSYGVCYETTSSKSINYIAAFDVKNVSEAKKLGLDTMEIPEAEYAVVKLKGKIPNCIHEGWKYVMEVFFPEHGYKHAGTPDFELYSEGDMGSDNYEMELWVPIIKAE	not soluble
MGSDKIHHHHHHMNILFVAPYTPSPIRVRPYQFIRHLARRGHTITLVCVADNEAALAELRTICRRVVAVPTRTGDHVLAYIRALPTRLPLQAAHCLTPAMITAVTREIQSGDHDVIHIEHLRAAEIGLAALHQSGGGLPVVLDAVDSISLLFERTFRRSSSLSGRLRALIDLARTRHYEATYPHRFAAVVVTSPEDRWALMTLNQTLSHPGHNPLVVAPNGVDLEYFQPHTGPRHPASLVFTGKMSYHANEAAARYLVEAIMPRVWAVRPEVTVTLAGAEPGAHIRAYAHDPRITVTGAVPDLRPYLTQATIAVAPIRYGVGVQNKVLEAMATATPVITARQATVALSVQPGHDLIVADDAAEFAQAILNLLADPERRDRLGQAGRMYVERHHHWQQSVTCLESVYRAVTTPVYTH	not soluble
MGSDKIHHHHHHMNIPIKTLHYFLTLVETGNFTRAAEKSFITQPTLSKIIQRLEENLGQQLLHRNNQKIELTQAGILLENSAREILGQWHRLQEDLTNLSGLKSGHLRLGVCPMMSSLIIDLLTAFRQQYPGIELQMYEYGGFGCEQALLNNSLDIAFTALPTTHDIELANRALTRYPLLACLPKDHALAQQEAVTWQDFEAYPFILYNEDFSLAKLITRLSHKAGVQLNIAFRSGQWDFLATMVEAQMGVAILPEPICHKLQGSELVFKPIRPNLTWDLALIWRKDLPLTPAAQALLDLSEQAHLHP	not soluble
